Twelve sequences from the DeepSol protein solubility set can be followed below.

The data set is described as follows: soluble on expression in E. coli; label from the status in PepcDB or PDB records.
For “MGSDKIHHHHHHMDCNGSGGSSDDDKPLHHDGGVRMKFFRSVGEVFGYSPFRSLAQHARMCGRAVGLLQQQFEALRRGNYEEVEELREEIDELEHHADQIKEEIRGNVTKSLMLPVDRHDLLEFLKVQDDILNNCEHVGHMVTFRKVSAPEDVWDEFLVLLSKLMEIVNNYEEMVERIMQLVETSFSKKEVNRALEYVPIIEQLEHECDLIQIGLHTKLFNLENSNPLDIQLMVTWVVHLGYVANAAARASDRFRIMILGR”, the “soluble on expression in E. coli” value is “not soluble”.

Turning to “GMIPFPESRLAAQMSFVVEIDKLKTILRQTLLTDSSRRENDAEHSWHIATMAFLLAEYADEAVQIGRVARMLLIHDIVEIDAGDTFIHDEAGNEDKEERERKAAARLFGLLPPDQAAEYSALWQEYEARETADARFADALDRLQPLLHNFETEGGTWKPHGVTRAKVDKLLPRIEAGSKRLGAYARALVDEAVRRGYLAP”, the “soluble on expression in E. coli” value is reported as “soluble”.

Turning to “MARTVFCTRLQKEADGLDFQLYPGELGKRIFDNICKEAWAQWQTKQTMLINEKKLNMMDPEHRKLLEQEMVNFLFEGKEVHIEGYTPPAK”, the “soluble on expression in E. coli” value is “not soluble”.

As to “MQRFLDSISAATQAKSPAEHETLVAMADLYAIITCVEYLERAWRANAVSDEDYTRNCSRLIAQFRATRQLVMDDVPSVISFLEEYHLAARAAMNRLQVGVPATVEHANSSDETRRRNFTAAAIQATEAFLTFRDALELGERSVDRLLPYLREILLVLGRMGAVFGTADGDATVQRERIVQWVRRLDAMHAYEQITEEDKRQLAHDVDTLYDTFRRRVGELEM”, the “soluble on expression in E. coli” value is reported as “not soluble”.

As for “MSETAKRLLRRVEAIDAAAAENRARAEQYRQMTEKLAAVTGTATSPDGVVTVVAGPDGSVKEVTFSEQVRKADPAALSASVVHTIAQARVNATREQAEIMRRNLDDTHLLDQVLAEDARLFGDKQPEDPGPPPPAAVPTGGTPAGRPRTQPARQAYNDDDSFEDFQVLRRS”, the “soluble on expression in E. coli” value was “not soluble”.

On to “MNHVKKHVLWKDEYFERYYRLNPELVQKRLDKIYQAEDDLMVLISTQLFCFLQANGTLYFDGCYKTGKADNSLLCTNLALWSIELACDHFDIREERGHTTKFSEQGESWLTLFACNQFSLVPYCYPAIQRGFQSGVLKEIVPFYREQKLGILAMEIMARERGDTINWEAMQVRVDPVYLDFCQNILLSSDDELVRTGLITLCDKHLEWTDFHNSDKHCCLTGYEIQRQDLLLWPFEYQAVKNWRARQGLSTPMIEHPLMNSPMTTANCPDFSQWQRPEWFNPLVDFLAQRRPELAFLRHLFI”, for which the “soluble on expression in E. coli” value is “not soluble”.

For the sequence “MGRKWNNIKEKKASKDANTSRIYAKFGREIYVAAKQGEPDPESNQALKVVLERAKTYSVPKNIIERAIEKAKGGAEENYDELRYEGFGPNGSMIIVDALTNNVNRTAPEVRAAFGKNGGNMGVSGSVAYMFDATAVIVVEGKTADEALEILMEADVDVRDILEEDDSAKSCYAEPDQFHAVQEAFKNAGVEEFTVAELQMLAQSEVTLPDDAKEQFEKLIDALEDLEDVQQVYHNVDLGELEHHHHHH”, the “soluble on expression in E. coli” value is listed as “soluble”.

Consider “MAHHHHHHMNEPSSGETNLQGGEDDVSAKGRSYGGAGGEKDAESNMNPSDNNTSSAVEDNHENSAQKEGADELGEDALNEMFDDFLKDIENISSNMENQQEGKKLNKGDAESEIARLLANKNSSPFEIFGIHEDVDMEKIKSKYRRLSVLIHPDKCKIEKASEAFHILNKAYEELKKDDIKEQYKSVYETAKKNIIKKLNLKKIRNELNEYLNKNEEEYEITKEVQLLINEECENLLKVQKEKMEYAQKCKLANLQYAKEKEEEKMKEELKKEEERKLWIEGREERVNNWKNYKKDNLKTEKEFHIYKNVGKKKEERTEEEKEKLKRISTTNPMEK”, for which the “soluble on expression in E. coli” value was “soluble”.

Take “MAHHHHHHMASVGRFVQTADPAVTALESPPLPTETRLWRQSPDCQSESDSNRVSGSVLDSVKSNGGPKHASTARLHASQDLPTSVTRFLCLSSSSNSAAAKDLRRQLLVVRDCCVALGNKVKGSELLLLGGSQLSRKVEAMADFNSCLGVIFAASLTFTGETEGVAKDTLCSVVEMLKSAQESGDEKVFRAAVVKIVNRILLCTPLRPPARNAAKETARKSAGKQEQHAEQEPKLEDECLDFLTVEDGVPVLLECVWKRWLRYFEDGYVRYVKKLMAEERQALEAAAAAAAADDYNGEEAQYVDGVSATTTQTISTVPLFTTCQDYWKSPASAYAQFCYILLAIFFVRTKDFSLNYLARVTKLVQYFTYQLEFEDGEPIAVRTDTDAEEDSAQSEDEDDDRTPPQQEGPRKEKQVHSLPMPEYDKAVTQRRFRMSRRSSSQGLVPTVVSFKKAEKPRRHCHKCFFTDALPGDLRPSVEAVRQEEAEAAARDSEEHSHLPVVRRSANLDLSEHSISPQREREQLDACDASMESVQGV”: the “soluble on expression in E. coli” value is listed as “not soluble”.

As for “MDVNQFTELITKLQSADNDIRKQAEEVYEKIEGPTKVAALFEAYTHHTNNSDARSTVLVFLRRVLARDWDAIWETLNEENKQRILAKVLEMIVHETELSIKKKIADLISEIASNLIDDSGDMTWGGVLELMDHCLKSEDLTGNYIALLILRGCPIIFGNRLAHFLPTLKVVLEKCMATPDLQIKATAVRAVIAFAVDNDEEKDVVRLMTSLVPNVLQVCNETSDEDDSDGPLGEFAELASSLPKCLNTHMSQVLQVTLAIAGNKEKNEMVRQNAIEVICSYMESAPKGLKKYAPGALGPILETLLSCMTEMDDDVLNEWLNEIEEEEDYEDIPIIAESAIDRVACCINGKVMLPVFLPLVEKLLTSEDWKMKHAALRAFSAVGEGCQRSMEPHIEQIMAHITNYVNDAHPRVQYAACNAIGQMSSDFAPTLQKKCHAAVIPALLESLDRTDVPRVCAHAASALVNFAEECPKSIIGQYLPFILQKLENVLSAVFNRLGDKRYQVVVENIVTAIASVAEAAEELFKEHHARLIPNLVHILQNVGELKELRGKTIECISLIGYAVGKEQFHATAIEILNLLGDGMKDLAIDDPQYSYMISSWTRFCSILGADFAPFLPVVMDPVLRAARYRPDFNIFNNEDVHENEEGVEYHGIGGEKTVGIRTSGLEEKATACDMLVAFAKEMKEAFMPYVVDVYELAIKNLDFGLHDGVRTASAEIMPCLLTCVEKQGLADKRRLWCEFLKALTTSMEEEDDVEILASFMTTIGSCIEVMKTEGIAEEEVQLIISVLLKQLENYGKRMSDRPVEDEDDDDAEAKEELDYFMELEASCLGAISDLTHSLMKEFKGTIFEGMINVFNCAIQLIEGSKQYFERQWGMCLLDDAIEFGVGHMPTRFPKLIPIMYKLLGDEYPEVRQAASYGFGVMAINYHQISDYRNEILSCLEPLAAMIQREDARATEESTVATENAISAFAKIIGNVPLPAEAYGKVVEMFLSWLPTYSDTEESPYIYTCLAELFDKQDAALFGPENQNLPRIFLVCLLSIANDAFNDDDSGNQTKQRIVTILKQIYASFPQFAQQDGIDEHLTSVLQQTLNGQ”, the “soluble on expression in E. coli” value is “not soluble”.

With “MDPDLWEETGHNSELLLRLLPAARLTAVARDPQYTGRLEQVWQQYRTYLGAPVNRGNLPGLESNQVIAYFSAEFGLSEALPIYAGGLGFLAGDHLKSASDLGLPLVGVGLLYREGYFRQRLDRRGQQREVYSRYDFYQLPLELERRADGSPLEVQVNFPDPDRQVRARVWRARVGRLNLYLLDSDCPGNLEADRLITDRLYGGDLEKRIQQEILLGIGGVRALAALGINATIFHLNEGHSAFLGLERIRQLQARYGLDLASARELATCSNIFTTHTPVPAGIDVFPPYLMDKYFTEYYQSLGLSRHEFLALGRQDPNNQQEPFNMAVLALRLSAWANGVSQLHGQTARRMWQVIWPGVPVAEIPIGAITNGVHTTSWVGEKMAALYDRYLGTAWRELEHHHHHH”, the “soluble on expression in E. coli” value is on record as “not soluble”.

Consider “MSDQIIARVSQSLAKEQSLESLVRQLLEMLEMVTDMESTYLTKVDVEARLQHIMFARNSQKMYIPENFTVSWDYSLCKRAIDENCFFSDEVPDRWGDCIAARNLGITTFLSTPIHLPDGSFYGTLCAASSEKRQWSERAEQVLQLFAGLIAQYIQKEALVEQLREANAALIAQSYTDSLTGLPNRRAIFENLTTLFSLARHLNHKIMIAFIDLDNFKLINDRFGHNSGDLFLIQVGERLNTLQQNGEVIGRLGGDEFLVVSLNNENADISSLRERIQQQIRGEYHLGDVDLYYPGASLGIVEVDPETTDADSALHAADIAMYQEKKHKQKTPFVAHPALHS”, for which the “soluble on expression in E. coli” value was “soluble”.
